Measured values: patent US20220064276A1 (SCHOLAR ROCK, published 2022)
Where two headings read alike, the source gives them in different places.

How the values were obtained:
[1] = biological target: T1, human LTBP1-proTGFβ1 complex (human, UniProt Q14766 347-1721; P01137 30-390); experiment: Octet binning; competitor (immobilized second antibody) SR-AB1
T1 construct: Large latent complex: one presenting molecule disulfide-linked to a proTGFβ1 dimer; also called Hu LTBP1-proTGFβ1; huLTBP1 proTGFβ1
Description: (§1) 500 nM of human LTBP1-proTGFb1 complex was pre-incubated with 1 μM of each test antibody. After an overnight incubation, the LTBP1-proTGFβ1+first antibody was tested for binding to a second antibody which was immobilized to an Anti-Human IgG Fc Capture (AHC) sensor tip at 67 nM. The sensor tip was blocked with a negative control antibody (HuNeg) before seeing the LTBP1-proTGFβ1+first antibody.
(§2) Normalized responses less than 70% or less than 0.7 of the uninhibited interaction were considered antibodies that cross block.

[2] = biological target: T2, mouse LTBP1-proTGFβ1 complex (mouse, UniProt Q8CG19 339-1712; P04202 30-390); experiment: cell-based or functional assay
[3] = biological target: T3, LTBP-proTGFβ1: transfected human proTGFβ1 presented by endogenous LTBP1/3 of LN229 cells (human); experiment: cell-based or functional assay
[4] = biological target: T4, human GARP-proTGFβ1 complex (human, UniProt Q14392 18-627; P01137 30-390, limits assumed); experiment: Octet (bio-layer interferometry), yeast expressed IgG1Agly antibody, antigen at a single 100 nM per Example 6
T4 construct: Exemplary entries; also called Hu GARP-proTGFβ1; huGARP proTGFb1

[5] = biological target: T1, human LTBP1-proTGFβ1 complex; experiment: Octet binning; competitor (immobilized second antibody) SR-AB2
Description: as §1, §2

[6] = biological target: T1, human LTBP1-proTGFβ1 complex; experiment: Octet binning; competitor (immobilized second antibody) SR-AB10
Description: as §1, §2

[7] = biological target: T2, mouse LTBP1-proTGFβ1 complex; experiment: Octet BLI, IgG captured
Description: (§3) LTBP complex-specific antibodies from the first round of affinity maturation/optimization (SR-AB14, SR-AB16, SR-AB17, SR-AB18, SR-AB19) were selected for a second round of affinity maturation/optimization (i.e., CDR-H3 mutagenesis as described herein) and particular progeny antibodies (SR-AB20, SR-AB21, SR-AB22, SR-AB23, SR-AB24, SR-AB25, SR-AB26, SR-AB27, SR-AB28, and SR-AB29) were assessed for their ability to bind various proTGFβ1 constructs. Binding affinities of the optimized antibodies were measured by Octet against human LTBP1-proTGFβ1, human LTBP3-proTGFbl, mouse LTBP1-proTGFβ1, mouse LTBP3-proTGFbl, and GARP-proTGFβ1 complexes, essentially as described in Example 6. […] The antigens were allowed to associate for 3 minutes followed by a 5-minute dissociation. Kinetics buffer (ForteBio®) was used throughout the experiment, and KD was determined using a 1:1 fitting model for each antibody antigen pair.

[8] = biological target: T5, mouse LTBP3-proTGFβ1 complex (mouse, UniProt Q61810 41-1245; P04202 30-390, limits assumed); experiment: Octet BLI, IgG captured
T5 construct: Exemplary entries; also called Mo LTBP3-proTGFβ1; Murine LTBP3 proTGFb1
Description: as §3

[9] = biological target: T1, human LTBP1-proTGFβ1 complex; experiment: Octet binning; competitor (immobilized second antibody) SR-AB13
Description: as §1, §2

[10] = biological target: T2, mouse LTBP1-proTGFβ1 complex; experiment: cell-based or functional assay; remark: listed apart in the source
[11] = biological target: T3, LTBP-proTGFβ1: transfected human …; experiment: cell-based or functional assay; remark: listed apart in the source
[12] = biological target: T1, human LTBP1-proTGFβ1 complex; experiment: Octet (bio-layer interferometry), yeast expressed IgG1Agly antibody, antigen at a single 100 nM per Example 6, 1:1 fit; value printed under the panel
[13] = biological target: T2, mouse LTBP1-proTGFβ1 complex; experiment: as above
[14] = biological target: T5, mouse LTBP3-proTGFβ1 complex; experiment: as above
[15] = biological target: T2, mouse LTBP1-proTGFβ1 complex; experiment: cell-based or functional assay; remark: listed apart in the source
[16] = biological target: T3, LTBP-proTGFβ1: transfected human …; experiment: cell-based or functional assay; remark: listed apart in the source
[17] = biological target: T5, mouse LTBP3-proTGFβ1 complex; experiment: Octet (bio-layer interferometry), yeast expressed IgG1Agly antibody, antigen at a single 100 nM per Example 6
[18] = biological target: T2, mouse LTBP1-proTGFβ1 complex; experiment: cell-based or functional assay; remark: listed apart in the source
[19] = biological target: T3, LTBP-proTGFβ1: transfected human …; experiment: cell-based or functional assay; remark: listed apart in the source
[20] = biological target: T6, human LTBP3-proTGFβ1 complex (human, UniProt Q9NS15 44-1303; P01137 30-390, limits assumed); experiment: Octet BLI, IgG captured
T6 construct: Exemplary entries; also called Hu LTBP3-proTGFβ1; huLTBP3 proTGFb1
Description: as §3

[21] = biological target: T1, human LTBP1-proTGFβ1 complex; experiment: Octet BLI, IgG captured
Description: as §3

[22] = biological target: T6, human LTBP3-proTGFβ1 complex; experiment: Octet (bio-layer interferometry), yeast expressed IgG1Agly antibody, antigen at a single 100 nM per Example 6, 1:1 fit; value printed under the panel

T1 sequence (Q14766 347-1721 limits assumed, chain 1 of 2): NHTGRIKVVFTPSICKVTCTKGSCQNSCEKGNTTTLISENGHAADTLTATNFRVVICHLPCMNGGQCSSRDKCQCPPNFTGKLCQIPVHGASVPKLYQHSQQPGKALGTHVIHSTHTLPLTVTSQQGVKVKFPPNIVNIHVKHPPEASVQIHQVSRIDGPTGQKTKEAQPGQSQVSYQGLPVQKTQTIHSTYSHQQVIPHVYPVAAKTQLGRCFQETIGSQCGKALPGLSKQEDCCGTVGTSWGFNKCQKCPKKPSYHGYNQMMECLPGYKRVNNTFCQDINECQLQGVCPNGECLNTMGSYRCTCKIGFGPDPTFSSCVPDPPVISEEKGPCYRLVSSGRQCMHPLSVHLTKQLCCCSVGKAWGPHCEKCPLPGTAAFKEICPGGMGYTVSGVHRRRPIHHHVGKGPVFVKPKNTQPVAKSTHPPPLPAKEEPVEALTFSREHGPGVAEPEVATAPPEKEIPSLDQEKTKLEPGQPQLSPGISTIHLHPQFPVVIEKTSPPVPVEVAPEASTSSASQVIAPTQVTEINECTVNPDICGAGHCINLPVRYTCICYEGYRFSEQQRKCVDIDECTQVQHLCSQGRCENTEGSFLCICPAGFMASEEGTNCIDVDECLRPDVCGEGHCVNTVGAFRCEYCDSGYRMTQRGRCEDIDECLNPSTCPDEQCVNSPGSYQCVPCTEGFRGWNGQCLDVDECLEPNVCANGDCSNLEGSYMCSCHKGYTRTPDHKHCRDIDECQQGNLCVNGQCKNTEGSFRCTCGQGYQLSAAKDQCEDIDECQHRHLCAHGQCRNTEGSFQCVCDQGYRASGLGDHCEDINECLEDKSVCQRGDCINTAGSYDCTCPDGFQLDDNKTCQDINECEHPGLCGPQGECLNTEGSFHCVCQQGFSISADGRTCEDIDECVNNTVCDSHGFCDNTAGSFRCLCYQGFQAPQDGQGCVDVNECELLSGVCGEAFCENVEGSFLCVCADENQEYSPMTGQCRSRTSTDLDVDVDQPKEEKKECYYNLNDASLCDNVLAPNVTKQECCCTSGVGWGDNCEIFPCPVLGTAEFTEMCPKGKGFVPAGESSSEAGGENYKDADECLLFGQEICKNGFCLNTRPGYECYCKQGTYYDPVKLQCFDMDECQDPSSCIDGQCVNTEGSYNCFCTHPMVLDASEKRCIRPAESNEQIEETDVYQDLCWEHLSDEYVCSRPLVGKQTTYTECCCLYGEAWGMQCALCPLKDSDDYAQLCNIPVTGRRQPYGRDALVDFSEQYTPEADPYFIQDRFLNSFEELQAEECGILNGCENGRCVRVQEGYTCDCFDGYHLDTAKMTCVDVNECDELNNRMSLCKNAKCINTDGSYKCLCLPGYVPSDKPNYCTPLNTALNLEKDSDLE
T1 sequence (P01137 30-390 limits assumed, chain 2 of 2): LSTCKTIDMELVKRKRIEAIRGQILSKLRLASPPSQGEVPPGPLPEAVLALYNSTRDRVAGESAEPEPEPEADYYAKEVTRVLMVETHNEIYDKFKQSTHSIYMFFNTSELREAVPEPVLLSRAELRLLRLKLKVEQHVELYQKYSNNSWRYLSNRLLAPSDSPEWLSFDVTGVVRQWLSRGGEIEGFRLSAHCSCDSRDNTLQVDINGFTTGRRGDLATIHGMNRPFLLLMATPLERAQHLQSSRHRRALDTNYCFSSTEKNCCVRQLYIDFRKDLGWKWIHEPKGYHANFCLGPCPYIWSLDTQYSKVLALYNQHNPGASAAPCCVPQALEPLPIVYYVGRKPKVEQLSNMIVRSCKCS
T5 sequence (Q61810 other isoform, or with tags, fused parts or gaps limits assumed, chain 1 of 2): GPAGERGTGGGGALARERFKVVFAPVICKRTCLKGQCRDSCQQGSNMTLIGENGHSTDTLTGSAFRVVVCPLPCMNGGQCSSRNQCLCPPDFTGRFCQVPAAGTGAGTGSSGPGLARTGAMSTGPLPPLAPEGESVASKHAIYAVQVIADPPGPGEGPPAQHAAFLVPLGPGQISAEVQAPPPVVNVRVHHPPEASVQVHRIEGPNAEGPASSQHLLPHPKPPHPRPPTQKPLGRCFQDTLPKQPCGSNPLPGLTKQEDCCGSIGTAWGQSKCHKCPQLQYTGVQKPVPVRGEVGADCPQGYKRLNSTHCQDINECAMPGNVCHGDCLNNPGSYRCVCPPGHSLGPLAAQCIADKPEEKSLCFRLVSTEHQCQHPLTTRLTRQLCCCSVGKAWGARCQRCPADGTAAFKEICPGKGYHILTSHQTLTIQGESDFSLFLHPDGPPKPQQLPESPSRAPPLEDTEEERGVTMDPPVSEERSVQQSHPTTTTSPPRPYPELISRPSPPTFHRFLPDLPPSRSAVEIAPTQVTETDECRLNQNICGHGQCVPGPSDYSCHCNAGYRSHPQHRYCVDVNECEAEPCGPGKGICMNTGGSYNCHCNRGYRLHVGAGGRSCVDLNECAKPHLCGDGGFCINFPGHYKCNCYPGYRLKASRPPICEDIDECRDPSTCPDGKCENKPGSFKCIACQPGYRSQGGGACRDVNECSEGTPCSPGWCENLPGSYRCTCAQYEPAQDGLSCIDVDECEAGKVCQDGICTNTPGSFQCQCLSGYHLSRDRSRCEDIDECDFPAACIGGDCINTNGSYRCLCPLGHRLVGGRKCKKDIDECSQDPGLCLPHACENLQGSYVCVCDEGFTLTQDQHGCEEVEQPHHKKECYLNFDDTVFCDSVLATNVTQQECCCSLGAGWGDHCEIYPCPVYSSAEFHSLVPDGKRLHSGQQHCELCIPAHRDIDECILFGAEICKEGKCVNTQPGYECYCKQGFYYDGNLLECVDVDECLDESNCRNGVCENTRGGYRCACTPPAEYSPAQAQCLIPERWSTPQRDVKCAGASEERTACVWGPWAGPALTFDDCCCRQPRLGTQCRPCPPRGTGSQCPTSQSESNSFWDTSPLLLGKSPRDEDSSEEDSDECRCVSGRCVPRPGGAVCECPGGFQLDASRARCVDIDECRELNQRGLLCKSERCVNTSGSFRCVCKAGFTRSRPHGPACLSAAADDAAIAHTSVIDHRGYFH
T5 sequence (P04202 30-390 limits assumed, chain 2 of 2): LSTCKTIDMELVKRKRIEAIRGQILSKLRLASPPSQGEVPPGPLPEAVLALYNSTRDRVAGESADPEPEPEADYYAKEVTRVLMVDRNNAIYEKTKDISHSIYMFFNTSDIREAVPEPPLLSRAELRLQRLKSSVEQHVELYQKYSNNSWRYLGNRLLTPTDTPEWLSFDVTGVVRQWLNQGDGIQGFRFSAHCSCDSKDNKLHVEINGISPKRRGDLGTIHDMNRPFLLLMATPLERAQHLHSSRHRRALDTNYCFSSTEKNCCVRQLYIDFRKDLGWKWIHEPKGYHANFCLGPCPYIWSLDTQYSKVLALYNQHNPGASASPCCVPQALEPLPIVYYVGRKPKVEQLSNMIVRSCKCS
T2 sequence (Q8CG19 339-1712 limits assumed, chain 1 of 2): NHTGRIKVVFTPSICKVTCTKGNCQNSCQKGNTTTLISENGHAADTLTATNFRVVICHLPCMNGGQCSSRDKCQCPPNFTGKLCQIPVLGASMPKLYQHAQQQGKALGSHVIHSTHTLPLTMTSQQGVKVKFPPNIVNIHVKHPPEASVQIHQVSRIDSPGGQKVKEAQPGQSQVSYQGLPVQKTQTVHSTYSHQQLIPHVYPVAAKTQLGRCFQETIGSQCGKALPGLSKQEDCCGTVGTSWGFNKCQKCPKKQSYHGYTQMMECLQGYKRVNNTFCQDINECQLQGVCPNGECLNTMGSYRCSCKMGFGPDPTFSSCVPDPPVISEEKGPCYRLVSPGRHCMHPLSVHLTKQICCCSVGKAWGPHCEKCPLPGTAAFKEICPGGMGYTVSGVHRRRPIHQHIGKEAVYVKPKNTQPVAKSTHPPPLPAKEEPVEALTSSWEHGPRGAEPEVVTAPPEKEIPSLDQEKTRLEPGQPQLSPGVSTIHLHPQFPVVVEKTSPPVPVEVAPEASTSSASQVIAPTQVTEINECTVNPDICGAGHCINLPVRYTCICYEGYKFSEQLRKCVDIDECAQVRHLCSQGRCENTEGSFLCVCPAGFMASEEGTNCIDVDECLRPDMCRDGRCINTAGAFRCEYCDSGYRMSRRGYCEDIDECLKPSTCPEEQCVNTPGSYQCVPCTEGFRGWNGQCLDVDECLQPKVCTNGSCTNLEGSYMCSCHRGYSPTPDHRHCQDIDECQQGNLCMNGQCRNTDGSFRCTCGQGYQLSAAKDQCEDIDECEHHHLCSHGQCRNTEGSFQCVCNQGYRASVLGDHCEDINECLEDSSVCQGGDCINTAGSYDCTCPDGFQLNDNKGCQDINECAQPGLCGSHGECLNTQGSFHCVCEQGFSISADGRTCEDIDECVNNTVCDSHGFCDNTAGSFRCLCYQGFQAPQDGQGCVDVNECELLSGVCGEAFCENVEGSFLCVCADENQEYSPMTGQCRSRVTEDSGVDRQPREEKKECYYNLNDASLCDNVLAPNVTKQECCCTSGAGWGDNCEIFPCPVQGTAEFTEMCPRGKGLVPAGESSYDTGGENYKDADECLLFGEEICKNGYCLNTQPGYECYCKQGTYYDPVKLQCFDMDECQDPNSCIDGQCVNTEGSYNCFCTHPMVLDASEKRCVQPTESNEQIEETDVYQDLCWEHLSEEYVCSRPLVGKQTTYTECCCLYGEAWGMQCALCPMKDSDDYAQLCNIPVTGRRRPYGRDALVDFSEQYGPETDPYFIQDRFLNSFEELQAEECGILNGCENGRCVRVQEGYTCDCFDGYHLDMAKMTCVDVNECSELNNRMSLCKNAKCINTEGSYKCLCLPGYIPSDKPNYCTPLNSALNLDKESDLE
T2 sequence (P04202 30-390 limits assumed, chain 2 of 2): as the sequence (P04202 30-390 limits assumed, chain 2 of 2) above
T3 sequence (P01137 30-390): as the sequence (P01137 30-390 limits assumed, chain 2 of 2) above

normalized response [1] | binding result [4] | normalized response [5] | normalized response [6] | Kd [7] [nM] | normalized response [9] | Kd [12] [nM] | Kd [13] [nM] | Binder | further results
0.82 fraction of uninhibited binding | no binding (tested: 100 nM) | 1.53 fraction of uninhibited binding | 0.51 fraction of uninhibited binding | 14.2 | 1.27 fraction of uninhibited binding | 308 | 79 | SR-AB10 (antibody, IgG1, V domains shown, Parent antibody) VH: QLQLQESGGGVVQPGRSLRLSCAASGFTFNNYPIHWVRQAPGKGLEWVAVMSYDGINKYYADSVKGRFTISRDNSKNTLYLQMNSLRAEDTAVYYCARPRIAARRGGFDYWGQGTLVTVSS VL: NFMLTQPHSVSESPGKTVTISCTRSSGNIDNNYVQWYQQRPGSSPTTVIYEDNQRPSGVPDRFSGSIDSSSNSASLTISGLKTEDEADYYCQSYDSDNQGVVFGGGTKLTVL | IC50, mLTBP1 assay (CAGA12 luciferase) [2]: 119 nM; IC50, endogenous hLTBP assay (CAGA12 luciferase) [3]: 3.64 nM; Kd [8]: 23 nM; IC50, mLTBP1 assay (CAGA12 luciferase) [10]: 119 nM; IC50, endogenous hLTBP assay (CAGA12 luciferase) [11]: 3.64 nM; Kd [14]: 86 nM
1.08 fraction of uninhibited binding | no binding (tested: 100 nM) | 1.29 fraction of uninhibited binding | 1.38 fraction of uninhibited binding | 59.5 | 0.47 fraction of uninhibited binding | 148 | 102 | SR-AB13 (antibody, IgG1, V domains shown, Parent antibody; also called SR-13) VH: QLQLQESGPGLVKPSETLSLTCTVSGGSISSSSYYWGWIRQPPGKGLEWIGSISYSGSTYYNPSLKSRVTISVDTSKNQFSLKLSSVTAADTAVYYCARDPSYDSIAGMDVWGQGTTVTVSS VL: DIQLTQSPSSLSASVGDRVTITCRASQSISSYLNWYQQKPGKAPKLLIYAASNLQSGVPSRFSGSGSGTDFTLTISSLQPEDFATYYCQQSFDFPFTFGGGTKVEIK | IC50, mLTBP1 assay (CAGA12 luciferase) [15]: 25.4 nM; IC50, endogenous hLTBP assay (CAGA12 luciferase) [16]: 4.83 nM; binding result [17]: no binding (tested: 100 nM); IC50, mLTBP1 assay (CAGA12 luciferase) [18]: 25.4 nM; IC50, endogenous hLTBP assay (CAGA12 luciferase) [19]: 4.83 nM; Kd [20]: 35.9 nM; Kd [21]: 39.2 nM; Kd [22]: 71 nM
